Columns and labels:
Assay in all cases: co-IP; receptor-mediated co-immunoprecipitation: sample (5.5 ug) with hFasRECD-Fc (8.8 ug) and Protein G conjugated magnetic beads (1.0 mg) in 1.0 ml 50 mM Tris-HCl, 150 mM NaCl (pH 7.5), 1% Nonidet P40, 0.5% sodium deoxycholate; precipitate read by SDS-PAGE with silver stain
Conditions in all cases: both partners purified
[1] = biological target: T1, sulfo-Cy3-MTZ conjugated hFasLECD-TCO (human, UniProt P48023 139-281, N184Q | N250Q, cysteine in the N-terminal tag sequence modified with trans-cyclooctene-PEG3-maleimide and conjugated with sulfo-Cy3-methyltetrazine; estimated 1.5 fluorochromes per hFasLECD trimer)
T1 construct: holds the reactive cysteine; human Fas ligand extracellular domain, residues 139-281, with N184Q and N250Q; Derived from NFK3G1CG4-hFasLECD; Not every subunit of the trimer carries the fluorochrome; also called Sulfo-Cy3-MT-hFasLECD; sulfo-Cy3 conjugated hFasLECD; source: P. pastoris secretory expression, purified (cation exchange); modified with TCO-PEG3-MAL, reacted with sulfo-Cy3-MTZ, purified …
T1 sequence: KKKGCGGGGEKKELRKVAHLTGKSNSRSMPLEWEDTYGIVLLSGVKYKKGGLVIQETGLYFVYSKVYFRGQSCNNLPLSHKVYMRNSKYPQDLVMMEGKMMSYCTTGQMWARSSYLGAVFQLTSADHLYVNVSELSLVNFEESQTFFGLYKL

[2] = biological target: T2, sulfo-Cy3-TCO conjugated hFasLECD-MTZ (human, UniProt P48023 139-281, N184Q | N250Q, cysteine in the N-terminal tag sequence modified with methyltetrazine-PEG4-maleimide and conjugated with sulfo-Cy3-trans-cyclooctene; estimated 1.6 fluorochromes per hFasLECD trimer)
T2 construct: holds the reactive cysteine; human Fas ligand extracellular domain, residues 139-281, with N184Q and N250Q; Derived from NFK3G1CG4-hFasLECD; Not every subunit of the trimer carries the fluorochrome; also called Sulfo-Cy3-TM-hFasLECD; sulfo-Cy3 conjugated hFasLECD; source: P. pastoris secretory expression, purified (cation exchange); modified with MTZ-PEG4-MAL, reacted with sulfo-Cy3-TCO, purified …
T2 sequence: T1 sequence

[3] = biological target: T3, TCO-derivative of NFK3G1CG4-hFasLECD (human, UniProt P48023 139-281, N184Q | N250Q, cysteine in the N-terminal tag sequence modified with trans-cyclooctene-PEG3-maleimide)
T3 construct: holds the reactive cysteine; human Fas ligand extracellular domain, residues 139-281, with N184Q and N250Q; also called hFasLECD-TCO; source: P. pastoris secretory expression, purified (cation exchange); modified with TCO-PEG3-MAL, size-exclusion chromatography; not shown: FLAG, N-terminal, kept
T3 sequence: T1 sequence

[4] = biological target: T4, Avidin-hFasLECD conjugate (human | chicken, UniProt P48023 139-281; P02701 25-152, N184Q | N250Q, cysteine in the N-terminal tag sequence modified with trans-cyclooctene-PEG3-maleimide, joined through the TCO-MTZ reaction to an MTZ-PEG4 group on avidin | lysine residues modified with …)
T4 construct: holds the reactive cysteine; human Fas ligand extracellular domain, residues 139-281, with N184Q and N250Q; avidin from chicken egg white, native homotetramer; Covalent chemical conjugate, thought to be one avidin tetramer to one hFasLECD trimer; on SDS-PAGE mainly one avidin subunit joined to one hFasLECD subunit, less of one avidin subunit with two hFasLECD subunits; not shown: FLAG, …

Measured: binding result

T4 sequence (P02701 25-152, stated change not applied, one chain of several): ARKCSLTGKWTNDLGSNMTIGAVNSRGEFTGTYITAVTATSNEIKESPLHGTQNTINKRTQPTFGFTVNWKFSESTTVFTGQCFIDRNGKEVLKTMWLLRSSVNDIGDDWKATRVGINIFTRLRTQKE

B1: human Fas receptor extracellular domain-human IgG1 Fc domain fusion protein (Fc fusion, UniProt P25445 26-173, looked up)
chain: QVTDINSKGLELRKTVTTVETQNLEGLHHDGQFCHKPCPPGERKARDCTVNGDEPDCVPCQEGKEYTDKAHFSSKCRRCRLCDEGHGLEVEINCTRTQNTKCRCKPNFFCNSTVCEHCDPCTKCEHGIIKECTLTSNTKCKEEGSRSN
notes: human Fas receptor (hFasR) extracellular domain; also called hFasRECD-Fc; source: baculovirus - Bombyx mori expression system, purified
binds: all assays above

Source: paper PMC5496246, “Site-specific chemical conjugation of human Fas ligand extracellular domain using trans-cyclooctene – methyltetrazine reactions” (BMC Biotechnology, 2017)
